The values that follow are results of earlier work, collected in article PMC12073169.

For the data set, the target named is ATG3 (Homo sapiens) (UniProt Q9NT62).
UniProt Q9NT62, sequence (Q9NT62 whole entry): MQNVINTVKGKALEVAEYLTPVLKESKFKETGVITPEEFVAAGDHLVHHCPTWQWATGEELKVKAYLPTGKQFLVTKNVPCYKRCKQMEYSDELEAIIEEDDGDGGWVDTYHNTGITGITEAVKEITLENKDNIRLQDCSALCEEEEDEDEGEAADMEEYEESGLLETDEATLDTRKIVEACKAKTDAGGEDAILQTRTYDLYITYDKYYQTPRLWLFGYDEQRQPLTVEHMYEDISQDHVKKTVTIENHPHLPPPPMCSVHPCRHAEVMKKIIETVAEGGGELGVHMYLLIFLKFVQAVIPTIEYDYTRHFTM

The Kd is the free concentration of one partner at which half of the binding sites on the other are occupied at equilibrium, for simple one-to-one binding. As for ATG7 (from UniProt O95352), the Kd is 350 nM.
